Earlier results on eleven substances are cited in paper PMC7669891.

The target of data set [1] is p53 CTD (Homo sapiens) (UniProt P04637). The data set is described as follows: FP.
Data set [2] shares this target. Briefly: FP. This is another data set of the same source.
Data set [3] has the same target. The data set is described as follows: FP. This is another data set of the same source.
The target is the same in data set [4]. The data set is described as follows: FP. The source holds these as a separate data set.
The target is the same in data set [5]. Briefly: FP. The source holds these as a separate data set.
The target is the same in data set [6]. Briefly: FP. The source holds these as a separate data set.
The target is the same in data set [7]. Briefly: FP. This is another data set of the same source.
The target is the same in data set [8]. The data set is described as follows: FP. This is another data set of the same source.
Data set [9] shares this target. Briefly: FP. The source holds these as a separate data set.
For data set [10] the target is unchanged. The data set is described as follows: FP. This is another data set of the same source.
For data set [11] the target is unchanged. Briefly: FP. The source holds these as a separate data set.
For data set [12] the target is unchanged. The data set is described as follows: FP. The source holds these as a separate data set.
For data set [13] the target is unchanged. Briefly: ITC.
Data set [14] shares this target. The data set is described as follows: FP. This is another data set of the same source.
Data set [15] has the same target. The data set is described as follows: FP. The source holds these as a separate data set.
For data set [16] the target is unchanged. Briefly: FP. This is another data set of the same source.
Data set [17] has the same target. Briefly: FP. The source holds these as a separate data set.
For data set [18] the target is unchanged. The data set is described as follows: FP. The source holds these as a separate data set.
Data set [19] shares this target. The data set is described as follows: FP. The source holds these as a separate data set.
For data set [20] the target is unchanged. The data set is described as follows: FP. This is another data set of the same source.
Data set [21] shares this target. Briefly: FP. This is another data set of the same source.
Data set [22] has the same target. Briefly: FP. This is another data set of the same source.
Another data set deals with 14-3-3τ (Homo sapiens) (UniProt P27348). The data set is described as follows: FP.
For the next data set, the target named is 14-3-3γ (Homo sapiens) (UniProt P61981). Briefly: FP.
The target of a further data set is 14-3-3ε (Homo sapiens) (UniProt P62258). The data set is described as follows: FP.
For data set [23], the target named is 14-3-3σ (Homo sapiens) (UniProt P31947). Briefly: FP.
For data set [24] the target is unchanged. Briefly: ITC.

Chain of 14-3-3γ (Homo sapiens) (P61981 2-247): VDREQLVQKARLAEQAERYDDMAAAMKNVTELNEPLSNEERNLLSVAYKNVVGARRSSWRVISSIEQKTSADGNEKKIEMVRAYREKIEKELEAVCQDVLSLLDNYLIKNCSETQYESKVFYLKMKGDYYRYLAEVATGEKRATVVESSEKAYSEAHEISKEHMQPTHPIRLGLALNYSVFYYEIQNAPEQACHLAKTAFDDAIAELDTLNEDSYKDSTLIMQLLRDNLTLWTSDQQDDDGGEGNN
Chain of 14-3-3γ (P61981 2-247): as above
Chain of p53 CTD pS366/pS378 peptide (P04637 361-393): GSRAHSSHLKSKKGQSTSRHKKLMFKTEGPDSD
Chain of p53 CTD pS366 peptide (P04637 361-393): as above
Chain of p53 CTD pS366/pT387 peptide (P04637 361-393): as above
Chain of p53 CTD pS378 peptide (P04637 361-393): as above
Chain of p53 CTD pT387 peptide (P04637 361-393): as above
Chain of p53 CTD pS378/pT387 peptide (P04637 361-393): as above
Chain of 14-3-3σ (Homo sapiens) (P31947 whole entry): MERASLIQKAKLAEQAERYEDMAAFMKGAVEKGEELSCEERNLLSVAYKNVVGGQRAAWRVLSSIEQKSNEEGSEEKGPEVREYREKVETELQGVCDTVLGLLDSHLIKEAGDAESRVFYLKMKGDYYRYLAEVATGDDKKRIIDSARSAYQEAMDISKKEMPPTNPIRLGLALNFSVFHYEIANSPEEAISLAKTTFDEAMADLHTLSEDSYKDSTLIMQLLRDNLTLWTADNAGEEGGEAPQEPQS
Chain of 14-3-3σ (P31947 whole entry): as above
Chain of 14-3-3ε (P62258 whole entry): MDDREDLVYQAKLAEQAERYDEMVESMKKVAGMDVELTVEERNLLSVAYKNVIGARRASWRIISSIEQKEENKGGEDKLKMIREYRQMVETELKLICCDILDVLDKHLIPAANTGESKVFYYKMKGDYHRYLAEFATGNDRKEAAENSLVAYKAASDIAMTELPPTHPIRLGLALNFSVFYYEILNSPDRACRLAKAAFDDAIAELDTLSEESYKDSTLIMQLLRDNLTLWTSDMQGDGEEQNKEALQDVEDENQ
Chain of 14-3-3ε (Homo sapiens) (P62258 whole entry): as above
Chain of p53 CTD (Homo sapiens) (P04637 363-393): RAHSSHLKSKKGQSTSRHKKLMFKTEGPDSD
Chain of 14-3-3τ (P27348 whole entry): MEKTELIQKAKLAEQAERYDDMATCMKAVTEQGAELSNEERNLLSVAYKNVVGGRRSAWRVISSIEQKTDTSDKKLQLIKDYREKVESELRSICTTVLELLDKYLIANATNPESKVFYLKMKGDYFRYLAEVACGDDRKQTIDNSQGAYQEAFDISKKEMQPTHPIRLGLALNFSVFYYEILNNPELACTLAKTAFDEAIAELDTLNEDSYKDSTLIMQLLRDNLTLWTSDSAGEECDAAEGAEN
Chain of 14-3-3τ (Homo sapiens) (P27348 whole entry): as above

Consider 14-3-3γ (from UniProt P61981), for which the Kd in the data set with p53 CTD (Homo sapiens) [1] was 20 µM; with p53 CTD (Homo sapiens) [2], 0.48 µM; with p53 CTD (Homo sapiens) [3], 0.45 µM; with p53 CTD (Homo sapiens) [4], 17 µM; in the data set with p53 CTD (Homo sapiens) [5], 14 µM; with p53 CTD (Homo sapiens) [6] it was 0.14 µM.
For the substance 14-3-3ε (from UniProt P62258), the Kd with p53 CTD (Homo sapiens) [7] is 0.18 µM; with p53 CTD (Homo sapiens) [3], 16 µM; with p53 CTD (Homo sapiens) [8], 11 µM; with p53 CTD (Homo sapiens) [9], 0.8 µM; with p53 CTD (Homo sapiens) [10], 18 µM; with p53 CTD (Homo sapiens) [11] it was 0.51 µM.
For 14-3-3σ (from UniProt P31947), the dissociation constant Kd with p53 CTD (Homo sapiens) [12] was 2.2 µM; with p53 CTD (Homo sapiens) [13], 16.3 µM; in the data set with p53 CTD (Homo sapiens) [14] it was 24 µM; with p53 CTD (Homo sapiens) [15], 7.3 µM; with p53 CTD (Homo sapiens) [3] it was 23 µM; with p53 CTD (Homo sapiens) [16], 3.5 µM. The dissociation constant Kd with p53 CTD (Homo sapiens) [17] is 22 µM.
Take 14-3-3τ (from UniProt P27348): the Kd with p53 CTD (Homo sapiens) [18] is 24 µM; in the data set with p53 CTD (Homo sapiens) [19], 28 µM; in the data set with p53 CTD (Homo sapiens) [3] it was 6.2 µM; in the data set with p53 CTD (Homo sapiens) [20] it was 2.1 µM; in the data set with p53 CTD (Homo sapiens) [21] it was 3.3 µM; in the data set with p53 CTD (Homo sapiens) [22], 27 µM.
As to “p53 CTD pS366 peptide (from UniProt P04637)”, the Kd with 14-3-3τ (Homo sapiens) was 28 µM; with 14-3-3γ (Homo sapiens), 17 µM; with 14-3-3ε (Homo sapiens) it was 16 µM; with 14-3-3σ (Homo sapiens) [23], 24 µM.
With “p53 CTD pS366/pS378 peptide (from UniProt P04637)”, the dissociation constant (Kd) in the data set with 14-3-3τ (Homo sapiens) was 2.1 µM; with 14-3-3γ (Homo sapiens) it was 0.48 µM; with 14-3-3ε (Homo sapiens), 0.51 µM; with 14-3-3σ (Homo sapiens) [23], 2.2 µM.
Take “p53 CTD pS366/pT387 peptide (from UniProt P04637)”: the Kd in the data set with 14-3-3τ (Homo sapiens) was 6.2 µM; with 14-3-3γ (Homo sapiens), 0.14 µM; with 14-3-3ε (Homo sapiens), 0.18 µM; in the data set with 14-3-3σ (Homo sapiens) [23] it was 3.5 µM.
Consider “p53 CTD pS378 peptide (from UniProt P04637)”, for which the equilibrium dissociation constant (Kd) in the data set with 14-3-3τ (Homo sapiens) was 27 µM; in the data set with 14-3-3γ (Homo sapiens), 20 µM; with 14-3-3ε (Homo sapiens), 18 µM; with 14-3-3σ (Homo sapiens) [23], 22 µM.
In the case of “p53 CTD pS378/pT387 peptide (from UniProt P04637)”, the Kd with 14-3-3τ (Homo sapiens) is 3.3 µM; with 14-3-3γ (Homo sapiens) it was 0.45 µM; in the data set with 14-3-3ε (Homo sapiens), 0.8 µM; with 14-3-3σ (Homo sapiens) [23], 7.3 µM.
With “p53 CTD pT387 peptide (from UniProt P04637)”, the Kd with 14-3-3τ (Homo sapiens) is 24 µM; with 14-3-3γ (Homo sapiens) it was 14 µM; with 14-3-3ε (Homo sapiens) it was 11 µM; with 14-3-3σ (Homo sapiens) [23], 23 µM.
In the case of p53 pT387 peptide (from UniProt P04637), the Kd with 14-3-3σ (Homo sapiens) [24] is 16.3 µM.
